{"source": "patent US7910550B2", "about": "“Human kunitz-type inhibitor with enhanced antifibrinolytic activity” (STC.UNM, priority 2004, dated 2011)", "tested_on": "HT-1080 cells", "test": "Gene expression by Oligo GEARRAY Human Apoptosis Microarray", "assay_type": "cell-based", "method": "To study the gene expression profiles of proteins involved in apoptosis, approximately 2×10^7 cells were grown to confluence and treated with either recombinant R24K KD1 or vehicle for 24 hours and 48 hours. After the treatment, the cells were harvested and total RNA was purified using the RNEASY RNA extraction kit according to the manufacturer's instruction. The purified RNA samples were further digested using an on-column DNase digestion with RNase-free DNase-I to ensure complete removal of any contaminating genomic or mitochondrial DNA. The pathway-specific microarray was carried out using 3 μg of total RNA to generate biotin-labeled cRNA using TRUELABELING-AMP from SABiosciences Corp. (Frederick, Md.). TRUELABELING-AMP 2.0 from (SABiosciences Corp., Frederick, Md.) was used to rapidly amplify and label antisense RNA for hybridization. Three micrograms of labeled cRNA was used for hybridization with an Oligo GEARRAY Human Apoptosis Microarray consisting of 112 genes. Following incubation with CDP-STAR, the chemiluminescent array image was captured by a cooled CCD camera (Alpha Innotech Corp., San Leandro, Calif.). All images were saved as electronic files in a grayscale, 8 or 16 bit TIFF file format and analyzed using a GEARRAY Expression Analysis Suite. Data were normalized using minimum value background subtraction and interquartile normalization. Minimum value is the lowest density spot on the array and the average across the spot was used as the background correction value and is subtracted from the intensity value for each spot on the array. Interquartile uses only genes between the 25% and 75% quartile and the average intensity value of these spots is used for normalization of all the genes (intensity value of each gene is divided by this mean intensity value). The pUC19 plasmid was used as the negative control in the array."}
{"molecule": "R24K KD1: KD1 with lysine in place of arginine at position 24 (SEQ ID NO:3) (protein, mutated active domain) DAAQEPTGNNAEICLLPLDYGPCKALLLRYYYDRYTQSCRQFLYGGCEGNANNFYTWEACDDACWRIEKVPKV", "values": [{"measurement": "Fold change BAG3, Group 2 vs. Group 1", "setting": "Group 2 vs. Group 1", "value": 0.60, "unit": "fold"}, {"measurement": "Fold change BAK1, Group 2 vs. Group 1", "setting": "Group 2 vs. Group 1", "value": 1.78, "unit": "fold"}, {"measurement": "Fold change BAX, Group 2 vs. Group 1", "setting": "Group 2 vs. Group 1", "value": 3.09, "unit": "fold"}, {"measurement": "Fold change BCL2, Group 2 vs. Group 1", "setting": "Group 2 vs. Group 1", "value": 0.65, "unit": "fold"}, {"measurement": "Fold change BCL2A1, Group 2 vs. Group 1", "setting": "Group 2 vs. Group 1", "value": 2.02, "unit": "fold"}, {"measurement": "Fold change BCLAF1, Group 2 vs. Group 1", "setting": "Group 2 vs. Group 1", "value": 0.74, "unit": "fold"}, {"measurement": "Fold change BFAR, Group 2 vs. Group 1", "setting": "Group 2 vs. Group 1", "value": 0.34, "unit": "fold"}, {"measurement": "Fold change BNIP3, Group 2 vs. Group 1", "setting": "Group 2 vs. Group 1", "value": 1.71, "unit": "fold"}, {"measurement": "Fold change CARD6, Group 2 vs. Group 1", "setting": "Group 2 vs. Group 1", "value": 2.31, "unit": "fold"}, {"measurement": "Fold change CARD11, Group 2 vs. Group 1", "setting": "Group 2 vs. Group 1", "value": 1.54, "unit": "fold"}, {"measurement": "Fold change CASP4, Group 2 vs. Group 1", "setting": "Group 2 vs. Group 1", "value": 1.18, "unit": "fold"}, {"measurement": "Fold change CASP9, Group 2 vs. Group 1", "setting": "Group 2 vs. Group 1", "value": 1.50, "unit": "fold"}, {"measurement": "Fold change CD40, Group 2 vs. Group 1", "setting": "Group 2 vs. Group 1", "value": 4.74, "unit": "fold"}, {"measurement": "Fold change CIDEB, Group 2 vs. Group 1", "setting": "Group 2 vs. Group 1", "value": 2.25, "unit": "fold"}, {"measurement": "Fold change GADD45A, Group 2 vs. Group 1", "setting": "Group 2 vs. Group 1", "value": 1.88, "unit": "fold"}, {"measurement": "Fold change LTA, Group 2 vs. Group 1", "setting": "Group 2 vs. Group 1", "value": 75.31, "unit": "fold"}, {"measurement": "Fold change LTBR, Group 2 vs. Group 1", "setting": "Group 2 vs. Group 1", "value": 1.38, "unit": "fold"}, {"measurement": "Fold change MCL1, Group 2 vs. Group 1", "setting": "Group 2 vs. Group 1", "value": 1.46, "unit": "fold"}, {"measurement": "Fold change TNFRSF1B, Group 2 vs. Group 1", "setting": "Group 2 vs. Group 1", "value": 1.59, "unit": "fold"}, {"measurement": "Fold change TNFRSF10B, Group 2 vs. Group 1", "setting": "Group 2 vs. Group 1", "value": 1.68, "unit": "fold"}, {"measurement": "Fold change TNFRSF25, Group 2 vs. Group 1", "setting": "Group 2 vs. Group 1", "value": 1.27, "unit": "fold"}, {"measurement": "Fold change TRADD, Group 2 vs. Group 1", "setting": "Group 2 vs. Group 1", "value": 1.92, "unit": "fold"}, {"measurement": "Fold change TRAF4, Group 2 vs. Group 1", "setting": "Group 2 vs. Group 1", "value": 3.79, "unit": "fold"}, {"measurement": "Fold change BAG3, Group 3 vs. Group 1", "setting": "Group 3 vs. Group 1", "value": 0.44, "unit": "fold"}, {"measurement": "Fold change BAK1, Group 3 vs. Group 1", "setting": "Group 3 vs. Group 1", "value": 1.74, "unit": "fold"}, {"measurement": "Fold change BAX, Group 3 vs. Group 1", "setting": "Group 3 vs. Group 1", "value": 3.97, "unit": "fold"}, {"measurement": "Fold change BCL2, Group 3 vs. Group 1", "setting": "Group 3 vs. Group 1", "value": 0.12, "unit": "fold"}, {"measurement": "Fold change BCL2A1, Group 3 vs. Group 1", "setting": "Group 3 vs. Group 1", "value": 2.09, "unit": "fold"}, {"measurement": "Fold change BCL2L13, Group 3 vs. Group 1", "setting": "Group 3 vs. Group 1", "value": 1.61, "unit": "fold"}, {"measurement": "Fold change BCLAF1, Group 3 vs. Group 1", "setting": "Group 3 vs. Group 1", "value": 0.41, "unit": "fold"}, {"measurement": "Fold change BFAR, Group 3 vs. Group 1", "setting": "Group 3 vs. Group 1", "value": 0.25, "unit": "fold"}, {"measurement": "Fold change BNIP3, Group 3 vs. Group 1", "setting": "Group 3 vs. Group 1", "value": 1.69, "unit": "fold"}, {"measurement": "Fold change CARD6, Group 3 vs. Group 1", "setting": "Group 3 vs. Group 1", "value": 3.62, "unit": "fold"}, {"measurement": "Fold change CARD11, Group 3 vs. Group 1", "setting": "Group 3 vs. Group 1", "value": 4.36, "unit": "fold"}, {"measurement": "Fold change CASP4, Group 3 vs. Group 1", "setting": "Group 3 vs. Group 1", "value": 2.28, "unit": "fold"}, {"measurement": "Fold change CASP9, Group 3 vs. Group 1", "setting": "Group 3 vs. Group 1", "value": 3.22, "unit": "fold"}, {"measurement": "Fold change CD40, Group 3 vs. Group 1", "setting": "Group 3 vs. Group 1", "value": 63.39, "unit": "fold"}, {"measurement": "Fold change CIDEB, Group 3 vs. Group 1", "setting": "Group 3 vs. Group 1", "value": 1.77, "unit": "fold"}, {"measurement": "Fold change GADD45A, Group 3 vs. Group 1", "setting": "Group 3 vs. Group 1", "value": 5.56, "unit": "fold"}, {"measurement": "Fold change LTA, Group 3 vs. Group 1", "setting": "Group 3 vs. Group 1", "value": 15.94, "unit": "fold"}, {"measurement": "Fold change LTBR, Group 3 vs. Group 1", "setting": "Group 3 vs. Group 1", "value": 1.88, "unit": "fold"}, {"measurement": "Fold change MCL1, Group 3 vs. Group 1", "setting": "Group 3 vs. Group 1", "value": 2.20, "unit": "fold"}, {"measurement": "Fold change TNFRSF1B, Group 3 vs. Group 1", "setting": "Group 3 vs. Group 1", "value": 2.10, "unit": "fold"}, {"measurement": "Fold change TNFRSF10B, Group 3 vs. Group 1", "setting": "Group 3 vs. Group 1", "value": 1.71, "unit": "fold"}, {"measurement": "Fold change TNFRSF25, Group 3 vs. Group 1", "setting": "Group 3 vs. Group 1", "value": 2.08, "unit": "fold"}, {"measurement": "Fold change TRADD, Group 3 vs. Group 1", "setting": "Group 3 vs. Group 1", "value": 2.07, "unit": "fold"}, {"measurement": "Fold change TRAF4, Group 3 vs. Group 1", "setting": "Group 3 vs. Group 1", "value": 4.05, "unit": "fold"}]}
